Results on 1 protein are retold here after paper PMC6479699, “Structural and Functional Characterization of the Human Thymidylate Synthase (hTS) Interface Variant R175C, New Perspectives for the Development of hTS Inhibitors” (Molecules, 2019).

This data set deals with the molecule itself. Nature of the data set: SEC; HiLoad 16/600 Superdex 75pg column, last purification step; sample dialysed in buffer A (50 mM Tris pH 6.9, 300 mM KCl) beforehand. Background: In gel filtration, larger molecules generally elute earlier.

B1: His6-tag human thymidylate synthase variant R175C (enzyme, UniProt P04818 1-313, looked up)
chain: MPVAGSELPRRPLPPAAQERDAEPRPPHGELQYLGQIQHILRCGVRKDDRTGTGTLSVFGMQARYSLRDEFPLLTTKRVFWKGVLEELLWFIKGSTNAKELSSKGVKIWDANGSRDFLDSLGFSTREEGDLGPVYGFQWRHFGAEYRDMESDYSGQGVDQLQRVIDTIKTNPDDCRIIMCAWNPRDLPLMALPPCHALCQFYVVNSELSCQLYQRSGDMGLGVPFNIASYALLTYMIAHITGLKPGDFIHTLGDAHIYLNHIEPLKIQLQREPRPFPKLRILRKVEKIDDFKAEDFQIEGYNPHPTIKMEMAV
modifications: Cys195 oxidized to S-oxy-cysteine (CSX195) in all subunits of the crystal structure
notes: human thymidylate synthase (hTS, EC 2.1.1.45); Arg175 replaced by cysteine; In the crystal the chains were traced apart from the first 22-23 N-terminal residues and the C-terminal valine; also called HT-hTS R175C; hTS R175C; not shown: His6, N-terminal, kept
Broadly, the stoichiometry N is a count of units in the complex or per binding partner. Consider B1, for which the “stoichiometry N” value was 2.
